{"source": "patent US12508311B2", "about": "“Fusion protein, and preparation method and use thereof” (SUN YAT-SEN UNIVERSITY, priority 2021, dated 2025)", "molecules": {"B1": {"name": "TKD: fusion protein: tumour-cell-penetrating peptide BR2, anti-KRas nanobody VHH and lysosome recognition peptide CTM; SEQ ID NO.4 (protein)", "chain": "RAGLQFPVGRLLRRLLRDVQLQESGGGLVQAGGSLRLSCVASGRTFSTYPTGWFRQAPGKEREFVARINLSGGITNYADSVKGRFTISRDNAKNTVYLQMNSLKPEDTAVYYCGGGSTTWAGGIPTNFDYWGQGTQVTVSSGRKFERQKILDQRFFE"}, "B2": {"name": "TKDm: control molecule of TKD with mutated CTM fragment (CTMmt) which could not be recognized by a lysosome; SEQ ID NO.5 (protein)", "chain": "B1 chain with Q148A, Q153A"}}, "key": {"[1]": {"target": "T1, KRas protein in HT29 (KRas wt) cells (Homo sapiens, UniProt P01116)", "T1 construct": "host or cells: HT29", "experiment": "Co-immunoprecipitation (Co-IP) in HT29 cells", "assay_type": "cell-based", "conditions": "20 μg/mL, 24 hours, Lys05 10 μM", "method": "The co-immunoprecipitation experiment (Co-IP) was an important means to detect the intracellular interaction of the protein. […] The experiment was carried out in the presence of the lysosome inhibitor Lys05 with a final concentration of 10 μM. • (2) The cells were cultured and treated at 37° C. for 24 hours, and then cleaned twice with PBS, and 1 mL of 0.25% pancreatin was added into each culture dish to digest the cells and make the cells fall off from the culture dish wall. Then, 2 mL of complete culture solution was added into each culture dish to stop the digestion , centrifuged at the room temperature and 300 g for 3 minutes, to collect the cells. […] The colorectal cancer cells were lysed on ice, turned upside down for several times every 5 minutes gently without vortex, and centrifuged at 4° C. and 12,000 rpm for 30 minutes after being lysed for 30 minutes. • (4) The supernatant was transferred to a new EP tube, the protein concentration was measured by the BCA method, and then 1 mg of protein was taken from each group for a Co-IP reaction. […] Meanwhile, 30 μL of protein sample was also taken from the Input group, vortically vibrated for 1 minute, boiled in boiled water for 10 minutes, and centrifuged, and the supernatant was collected in a new 1.5 mL EP tube. • (8) The protein concentration was measured by the BCA method. […]"}, "[2]": {"target": "T2, wild-type KRas protein in HT29 (KRas wt) cells (Homo sapiens, UniProt P01116)", "T2 construct": "host or cells: HT29", "experiment": "Western blot of KRas degradation in HT29 cells", "assay_type": "cell-based", "conditions": "for degradation of KRas protein, concentration-dependency (western blot): 0-20 μg/ml", "method": "• (1) Source and culture of cells: human colorectal cancer cells HT29 (KRas wt) and human colorectal cancer cells HCT116 (KRas G13D) came from American Type Culture Collection (ATCC) (item number: HTB-38, CCL-247). HT29 and HCT116 cells were all cultured in the 1640 culture medium added with 10% fetal bovine serum (FBS), under 5% CO2 at 37° C. • (2) The colorectal cancer cells HCT116 and HT29 were respectively spread in six-well plates, 500,000 cells per well. […] 2,000 μL of DMEM complete culture solution was added into each well and mixed evenly, and the cells were cultured at 37° C. for 24 hours. • (3) The cells were cleaned with PBS twice, and 0.5 mL of 0.25% pancreatin was added into each well to digest the cells and make the cells fall off from the culture dish wall. Then, the digestion was stopped with 1 mL of complete culture solution per well, the cell suspension was collected into a 1.5 mL EP tube, and centrifuged at the room temperature and 300 g for 3 minutes to collect the cells. The cells were resuspended with 1 mL of PBS, and repeatedly centrifuged for one time. • (4) The supernatant was removed, and 100 μL of lysate was added in each group (item number: P0013G; purchased from Beyotime Biotechnology Company). The cells were lysed on ice, vortically vibrated every 5 minutes, and centrifuged at 4° C. and 12,000 pm for 30 minutes after being lysed for 30 minutes, and the supernatant was collected into a new 1.5 mL EP tube. • (5) The protein concentration was measured by the BCA method, and 30 μg of protein was taken from each group for SDS denaturation gel electrophoresis, transferred and blocked with 5% skim milk for 1 hour. Then, KRas (source: Proteintech; item number: 12063-1-AP) and β-tublin (source: Proteintech; item number: 10094-1-AP) primary antibodies were added by a ratio of 1:2,000, and shaken overnight at 4° C. to remove the antibodies. The membrane was washed with TBST for three times, 10 minutes each time. The rabbit secondary antibody labeled with corresponding HRP (source: TransGen Company; item number: HS101-01) was added for dilution with the ratio of 1:3,000 and incubated in shaking at the room temperature for 1 hour, and the membrane was cleaned with TBST for three times, 10 minutes each time. The antibody was luminously developed in the dark room of the ELC luminescent kit. Concentrations of all the primary antibodies were 1:2,000 (1 […] diluted in 2,000 μL of primary antibody diluent).\nThe protein concentrations were measured by BCA, and 30 μg of protein was taken respectively and stored in a refrigerator at −20° C. for later use. • (3) Western blot experiment was carried out on collected protein samples."}, "[3]": {"experiment": "Residence time in vivo (serum western blot)", "parameters": "species or system mice", "method": "• (1) Balb/c nude mice, female, 4 weeks to 5 weeks old, purchased from Guangdong Laboratory Animal Center and raised in Laboratory Animal Center of Sun Yat-sen University, were used in this experiment. […] The serum protein concentration was measured by the BCA method (as described above). 20 μg of serum protein was respectively taken for the WB experiment (as described above), and whole serum protein gel running and Coomassie brilliant blue staining. • (4) Experimental results were shown in FIG. 19."}}, "note": "Where a chain is given by its changes, count along the chain named.", "data": [{"molecule": "B1", "values": [{"measurement": "binding to KRas protein in cells (Co-IP)", "setting": "[1]", "value": "could pass through the cell membrane and bind to the wild-type and mutant-type KRas proteins in cells without discrimination"}, {"measurement": "degradation of KRas, influence of administration time", "setting": "[2]; 10 and 20 μg/mL, 1, 2, 6, 12, 24 hours, cell line not restated (FIG. 12)", "value": "could rapidly degrade KRas, and the degradation was time-dependent within a certain range"}, {"measurement": "degradation of KRas protein, concentration-dependency (western blot)", "setting": "[2]; HT29, 24 hours", "value": "could cause degradation of expression levels of the wild-type and mutant-type KRas proteins in the colorectal cancer cells, and the degradation degree was increased with the increase of the concentration"}, {"measurement": "degradation effect on KRas at 10 ug/mL and 20 ug/mL", "setting": "[2]; HT29, FIG. 11, 24 hours", "value": "the degradation effect on KRas was obvious"}, {"measurement": "detection in serum after administration (western blot)", "setting": "[3]; 50 mg/kg intraperitoneal once, 3 days after administration", "value": "could still be detected"}, {"measurement": "half-life period in vivo", "setting": "[3]; inferred from serum detection 3 days after 50 mg/kg", "value": "long"}]}, {"molecule": "B2", "values": [{"measurement": "degradation of KRas protein, concentration-dependency (western blot)", "setting": "[2]; HT29, 24 hours", "value": "could not play a similar role"}]}]}
